Data as given in patent US20130040894A1, “INHIBITION OR ACTIVATION OF SERINE/THREONINE ULK3 KINASE ACTIVITY” (TALLINN UNIVERSITY OF TECHNOLOGY, priority 2009, published 2013).

B1: FLAG-tagged wild-type ULK3 (human serine/threonine kinase ULK3) (protein)
chain: MAGPGWGPPRLDGFILTERLGSGTYATVYKAYAKKDTREVVAIKCVAKKSLNKASVENLLTEIEILKGIRHPHIVQLKDFQWDSDNIYLIMEFCAGGDLSRFIHTRRILPEKVARVFMQQLASALQFLHERNISHLDLKPQNILLSSLEKPHLKLADFGFAQHMSPWDEKHVLRGSPLYMAPEMVCQRQYDARVDLWSMGVILYEALFGQPPFASRSFSELEEKIRSNRVIELPLRPLLSRDCRDLLQRLLERDPSRRISFQDFFAHPWVDLEHMPSGESLGRATALVVQAVKKDQEGDSAAALSLYCKALDFFVPALHYEVDAQRKEAIKAKVGQYVSRAEELKAIVSSSNQALLRQGTSARDLLREMARDKPRLLAALEVASAAMAKEEAAGGEQDALDLYQHSLGELLLLLAAEPPGRRRELLHTEVQNLMARAEYLKEQVKMRESRWEADTLDKEGLSESVRSSCTLQ
B2: ULK3: human serine/threonine kinase, 472 amino acids (SEQ ID NO: 1), overexpressed from cloned cDNA or immunopurified FLAG-tagged (protein, listed as Homo sapiens)
chain: B1 chain
modifications: PEPTIDE (1)..(472) ULK3

Experiments:
FLAG-tagged GLI3, P10071 = target: T1, FLAG-tagged GLI3, P10071
T1 chain: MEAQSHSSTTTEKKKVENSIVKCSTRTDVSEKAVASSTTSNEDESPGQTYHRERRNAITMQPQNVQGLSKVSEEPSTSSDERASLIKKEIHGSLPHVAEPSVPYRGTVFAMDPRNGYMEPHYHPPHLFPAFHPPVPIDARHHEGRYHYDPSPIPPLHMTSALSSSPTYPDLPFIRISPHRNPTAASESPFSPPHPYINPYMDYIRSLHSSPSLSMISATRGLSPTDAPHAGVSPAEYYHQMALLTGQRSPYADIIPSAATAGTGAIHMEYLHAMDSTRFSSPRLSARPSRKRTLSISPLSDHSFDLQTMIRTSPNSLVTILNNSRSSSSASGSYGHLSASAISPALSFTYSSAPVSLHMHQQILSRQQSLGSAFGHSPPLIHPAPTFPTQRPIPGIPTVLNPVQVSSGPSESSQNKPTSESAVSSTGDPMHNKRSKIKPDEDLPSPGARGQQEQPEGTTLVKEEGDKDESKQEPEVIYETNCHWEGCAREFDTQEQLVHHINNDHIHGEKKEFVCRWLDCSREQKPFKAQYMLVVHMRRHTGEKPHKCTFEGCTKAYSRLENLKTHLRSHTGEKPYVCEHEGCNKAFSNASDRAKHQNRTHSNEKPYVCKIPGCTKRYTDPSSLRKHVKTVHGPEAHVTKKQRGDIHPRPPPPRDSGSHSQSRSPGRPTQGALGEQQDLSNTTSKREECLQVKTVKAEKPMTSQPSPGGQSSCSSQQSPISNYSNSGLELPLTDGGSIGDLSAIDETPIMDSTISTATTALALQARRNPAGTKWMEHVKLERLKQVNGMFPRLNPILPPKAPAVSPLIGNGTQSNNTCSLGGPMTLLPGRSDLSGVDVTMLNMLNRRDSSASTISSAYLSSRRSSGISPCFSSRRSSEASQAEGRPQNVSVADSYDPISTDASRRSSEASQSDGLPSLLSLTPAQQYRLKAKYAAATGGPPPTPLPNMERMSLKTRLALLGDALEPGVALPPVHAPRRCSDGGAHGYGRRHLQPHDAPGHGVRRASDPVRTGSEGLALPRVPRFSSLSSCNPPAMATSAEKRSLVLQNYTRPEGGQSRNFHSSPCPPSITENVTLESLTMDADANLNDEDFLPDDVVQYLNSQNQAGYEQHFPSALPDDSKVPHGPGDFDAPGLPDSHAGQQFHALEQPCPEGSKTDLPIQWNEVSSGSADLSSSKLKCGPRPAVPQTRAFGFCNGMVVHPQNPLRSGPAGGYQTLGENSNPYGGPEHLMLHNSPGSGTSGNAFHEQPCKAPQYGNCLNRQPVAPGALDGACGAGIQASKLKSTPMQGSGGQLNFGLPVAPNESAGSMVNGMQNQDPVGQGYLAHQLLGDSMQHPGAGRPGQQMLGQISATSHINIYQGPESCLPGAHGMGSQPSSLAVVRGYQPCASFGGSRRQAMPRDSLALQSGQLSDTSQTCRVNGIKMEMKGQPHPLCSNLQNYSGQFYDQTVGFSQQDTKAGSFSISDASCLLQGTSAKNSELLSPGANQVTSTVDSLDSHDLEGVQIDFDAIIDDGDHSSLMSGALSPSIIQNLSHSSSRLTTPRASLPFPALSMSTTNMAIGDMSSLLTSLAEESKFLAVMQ

GLI3 = assay: In vitro kinase assay, phosphorylation of GLI3; assay type: biochemical; settings: FLAG-tagged GLI3 immunoprecipitated from HEK293 cells
Experimental: HEK293 cells were transfected with 13.5 μg of FLAG-tagged constructs expressed GLI1, GLI2, GLI3, ULK3, ULK3(K44R), ULK3(K139R) or FLAG-CMV-4 empty vector on 10 cm plates. The cells were lysed with 0.5 ml of Lysis Buffer (50 mM Tris HCl, pH 7.4, 150 mM NaCl, 1 mM EDTA, 1% Triton X-100) containing protease inhibitor cocktail (PIC) (Roche Applied Science). The lysates were centrifuged for 15 min at 4° C. and 15000 g, and the supernatants were used for immunoprecipitation (IP). IP was performed using anti-FLAG-M2 affinity gel (Sigma-Aldrich) in batch format according to the manufacture's instructions. Immune complexes were washed three times with 500 μl of Kinase Buffer (KB) (50 mM HEPES, pH 7.4, 20 mM MgCl2, 25 μM ATP) and resuspended in 12.5 μl of KB. One fifth of the immuno-complexes was subjected to WB and the rest was used for the kinase assay.
Kinase reactions were carried out in KB in a total volume of 20 μl of in the presence of 1 μCi of [γ-^32P]ATP per reaction. We used 1 μl of the immunoprecipitated ULK3, ULK3(K44R) or ULK3(K139R) mixed with 5 μl of the GLI-M2 immunocomplexes or 5 μl of bacterially expressed and purified His-GLI1 fragments. Kinase reactions were held at 30° C. for 30 min and terminated by adding of 5 μl of 4× Laemmli Sample Buffer. Proteins were resolved by SDS-PAGE. […]

Row | Molecule | in vitro kinase assay, phosphorylation signal (32P autoradiography) (FLAG-tagged GLI3, P10071) | phosphorylation of GLI3 (GLI3)
1 | B1 | GLI1 and GLI3 were also phosphorylated by ULK3, but with significantly lower intensity as compared to GLI2 | 
2 | B2 |  | significantly lower intensity as compared to GLI2
